Drawing on PMC7842947, this text covers CR50, cytopathic cell-rounding assay on HeLa FZD1/2/7-/- cells for one substance.

For this assay, the target named is chondroitin sulfate proteoglycan 4 (CSPG4), endogenous on HeLa cells (human (endogenous in HeLa)) (UniProt Q6UVK1).
UniProt Q6UVK1, sequence (Q6UVK1 30-2322): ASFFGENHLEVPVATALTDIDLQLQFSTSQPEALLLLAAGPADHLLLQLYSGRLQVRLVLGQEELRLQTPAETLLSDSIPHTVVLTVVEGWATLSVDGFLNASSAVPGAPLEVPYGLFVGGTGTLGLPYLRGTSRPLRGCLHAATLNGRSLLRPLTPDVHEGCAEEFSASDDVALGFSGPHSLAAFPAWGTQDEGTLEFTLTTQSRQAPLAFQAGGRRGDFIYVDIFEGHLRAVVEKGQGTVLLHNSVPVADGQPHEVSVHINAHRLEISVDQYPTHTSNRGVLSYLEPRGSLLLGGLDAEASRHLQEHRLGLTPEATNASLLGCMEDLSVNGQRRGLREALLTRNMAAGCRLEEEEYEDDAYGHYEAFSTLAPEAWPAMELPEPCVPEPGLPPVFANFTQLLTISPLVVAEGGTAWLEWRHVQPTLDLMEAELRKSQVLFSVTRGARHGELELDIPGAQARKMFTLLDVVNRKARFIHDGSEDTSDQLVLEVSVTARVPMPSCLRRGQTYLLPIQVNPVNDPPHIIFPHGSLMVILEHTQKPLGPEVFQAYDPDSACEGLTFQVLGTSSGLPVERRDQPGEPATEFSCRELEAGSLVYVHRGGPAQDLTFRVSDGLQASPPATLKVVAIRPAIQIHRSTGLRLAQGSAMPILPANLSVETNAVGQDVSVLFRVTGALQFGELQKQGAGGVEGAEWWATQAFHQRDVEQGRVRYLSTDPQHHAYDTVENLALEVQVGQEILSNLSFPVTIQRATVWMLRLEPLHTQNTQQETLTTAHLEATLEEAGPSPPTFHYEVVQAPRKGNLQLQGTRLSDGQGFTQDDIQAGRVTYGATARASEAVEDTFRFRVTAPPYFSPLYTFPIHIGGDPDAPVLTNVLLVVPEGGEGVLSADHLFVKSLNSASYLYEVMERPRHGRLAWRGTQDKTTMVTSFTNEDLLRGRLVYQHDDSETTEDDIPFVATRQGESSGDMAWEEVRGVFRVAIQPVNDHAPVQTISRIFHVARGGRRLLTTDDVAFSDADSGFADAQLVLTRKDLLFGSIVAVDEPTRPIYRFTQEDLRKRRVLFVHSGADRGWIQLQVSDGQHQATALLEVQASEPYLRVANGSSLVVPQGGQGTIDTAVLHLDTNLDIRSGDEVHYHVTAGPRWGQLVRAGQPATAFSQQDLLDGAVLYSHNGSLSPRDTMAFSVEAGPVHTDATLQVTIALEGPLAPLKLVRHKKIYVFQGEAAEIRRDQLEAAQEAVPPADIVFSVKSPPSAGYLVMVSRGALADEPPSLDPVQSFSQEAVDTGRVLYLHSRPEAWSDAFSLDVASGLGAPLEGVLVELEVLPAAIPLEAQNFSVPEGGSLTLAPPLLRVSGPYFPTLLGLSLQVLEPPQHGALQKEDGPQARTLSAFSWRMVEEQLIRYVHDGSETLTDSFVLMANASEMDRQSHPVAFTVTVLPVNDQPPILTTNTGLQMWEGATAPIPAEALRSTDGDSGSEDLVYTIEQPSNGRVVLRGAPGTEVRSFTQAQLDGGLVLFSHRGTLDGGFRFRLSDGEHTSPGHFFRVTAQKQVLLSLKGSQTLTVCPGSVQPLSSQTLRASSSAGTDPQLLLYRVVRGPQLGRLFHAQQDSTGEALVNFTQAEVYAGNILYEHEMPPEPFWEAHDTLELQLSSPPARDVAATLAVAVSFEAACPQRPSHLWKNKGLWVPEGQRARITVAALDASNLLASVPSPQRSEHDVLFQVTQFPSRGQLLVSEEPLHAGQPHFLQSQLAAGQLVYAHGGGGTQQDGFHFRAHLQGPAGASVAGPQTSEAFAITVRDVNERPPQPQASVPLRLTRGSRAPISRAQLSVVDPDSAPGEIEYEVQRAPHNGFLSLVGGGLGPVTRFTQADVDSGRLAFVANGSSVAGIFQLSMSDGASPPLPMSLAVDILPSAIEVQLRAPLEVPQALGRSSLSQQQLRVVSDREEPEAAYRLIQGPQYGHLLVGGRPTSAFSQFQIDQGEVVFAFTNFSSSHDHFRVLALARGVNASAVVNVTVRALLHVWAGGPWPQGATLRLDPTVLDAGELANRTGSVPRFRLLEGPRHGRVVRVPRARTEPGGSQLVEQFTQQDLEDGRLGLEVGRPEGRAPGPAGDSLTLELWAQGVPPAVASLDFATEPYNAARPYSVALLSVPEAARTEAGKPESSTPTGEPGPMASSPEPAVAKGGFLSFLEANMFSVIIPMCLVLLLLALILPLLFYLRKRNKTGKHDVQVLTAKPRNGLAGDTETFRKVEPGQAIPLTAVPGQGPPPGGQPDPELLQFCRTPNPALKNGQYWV

Substance “Clostridioides difficile toxin B variant 2 (TcdB2), full length, reference sequence from strain CD196 (natural protein)” showed a CR50, cytopathic cell-rounding assay on HeLa FZD1/2/7-/- cells of 0.06 pM.
